Reference: patent publication US12723255B2, “Herbicide tolerance genes and methods of use thereof” (priority 2014, dated 2026)
Like-named read-outs stand apart in the source and are kept apart here.

Key:
[1] = format: biochemical; conditions: substrate quizalofop-P
Description: To analyze these engineered proteins for activity in higher temperatures, the in vitro enzyme assay in Example 1 was modified to specify pre-heating all of the assay components to the desired temperature for 5 minutes before combining the components and then maintaining the reaction at the desired temperature for the duration of the reaction. To normalize the assay measurements, quizalofop-P was used as the substrate for the reaction and enzyme activity was normalized based on the 25° C. readings. Using these parameters, the temperature at which the enzyme activity was half of maximum (T1/2) was calculated. The T1/2 for MON-HT55 was calculated to be 29° C., and the T1/2 for wild-type RdpA was calculated to be 38° C. (FIG. 2A).
Enzyme activity over a range of temperatures was analyzed in-depth for MON-HT1, MON-HT2, MON-HT7, and MON-HT8. These assays were conducted as described above. Quizalofop-P or 2,4-D was used as the substrate for these reactions and activity was normalized based on the activity of the wild-type enzyme at 25° C. The activity curves obtained are presented in FIG. 2B (with quizalofop-P as the substrate) and FIG. 2C (with 2,4-D as the substrate). Using quizalofop-P as the substrate, MON-HT55 was the most temperature sensitive, with a T1/2 of 29° C. […] MON-HTI was slightly less temperature sensitive, with a T1/2 about 1° C. higher than the wild-type enzyme.

[2] = kinetic analysis, non-endpoint assay at 23° C.; format: biochemical
Excerpt: For the fifth screen, recombinant protein for each of the eleven engineered proteins was produced and purified for an in-depth biochemical analysis. This biochemical analysis included: (1) kinetic analysis (Vmax and Km), (2) activity assays over a range of temperatures, (3) protein melting analysis, (4) activity on additional AOPP herbicides substrates, and (5) mass spectrometry analysis on peptides to confirm identity. The biochemical analyses were also done with purified recombinant wild-type protein and MON-HT55 protein for comparison. For the kinetic analysis, a non-endpoint assay was conducted at 23° C. with either quizalofop-P or 2,4-D as substrate. The recombinant proteins for these assays were produced in bacteria and purified using a 6-His tag fused at the C-terminal end of the protein. Results of the kinetic analysis with either quizalofop-P or 2,4-D as substrate are presented for ten of the engineered proteins, wild-type protein, and MON-HT55 protein in Table 7 (standard error is shown in parenthetical). Vmax is expressed as specific activity, umol herbicide product mg enzyme-1 min-1; Km expressed as mM herbicide substrate. […] The differentiation of the protein kinetics for MON-HTI and MON-HT7 were surprising because there are only four amino acid differences between MON-HT1 and MON-HT7. Specifically, MON-HT1 has the following amino acids at the indicated position: 182; F105; T112; and V273, and MON-HT7 has the following amino acids at the indicated position: L82; V105; S112; and A273.
Kinetic analysis using a non-endpoint assay was conducted at 23° C. with either quizalofop-P or 2,4-D as substrate, as detailed above for purified protein of the wild-type enzyme, MON-HT1, MON-HT13, MON-HT15, and MON-HT17.

[3] = format: physicochemical
Description: A protein melting analysis was also conducted. For the protein melting determinations, purified enzyme was added to 96-well microtiter plates in standard storage buffer (30 mM Tris pH7.5, 150 mM NaCl) with or without 50 uM Fe2+ and 1.0 mM aKG. Protein unfolding was then detected with SYPRO® orange protein gel stain (Invitrogen™ catalog #S6651, Life Technologies, Grand Island, NY) in a BioRad CFX96™ Real time PCR machine (BioRad, Hercules, CA) with readings taken between 10° C. to 95° C. in 0.5° C. steps. […] In contrast, 50 uM Fe2+ and 1.0 mM aKG had little effect on the stability of any of the engineered proteins. MON-HT55, MON-HT3, MON-HT4, MON-HT6, and MON-HT10 had melting temperatures in the range of 41° C. to 48° C., which is below the melting temperature of the wild-type enzyme. MON-HT1, MON-HT2, MON-HT5, MON-HT7, MON-HT8, and MON-HT9 had melting temperatures between 58° C. and 67° C., which is 8° C. to 17° C. higher than the wild-type enzyme. For MON-HT7 and MON-HT1, the difference in melting point was 11° C. in buffer without Fe2+ and aKG and 8° C. in buffer with Fe2+ and aKG. This was surprising since there are only four amino acid differences between the two enzymes.
A protein melting analysis was conducted as detailed above. The melting temperatures of MON-HT13, MON-HT15, and MON-HT17 was similar to the melting temperature of MON-HT1 with T1/2 in buffer in the range of 55-58° C., and with T1/2 in buffer plus Fe2+ and aKG in the range of 60-62° C.

[4] = enzyme activity assay at 23° C. with purified enzyme; format: biochemical; conditions: wild-type set at 100%
Description: The enzyme activity of MON-HT protein variants with haloxyfop, fenoxaprop, fluazifop, and dichlorprop as substrates was determined using the enzyme activity assay conducted at 23° C. with purified enzyme. The activity was recorded as the maximum activity as a percentage of the wild-type enzyme's activity, which was set at 100%.

[5] = as above; format: biochemical; conditions: percentage of wild-type RdpA, set at 100%
Description: The enzyme activity of MON-HT protein variants with triclopyr, fluroxypyr, MCPA, MCPB, mecoprop, as substrates was determined using the enzyme activity assay conducted at 23° C. with purified enzyme. The activity was recorded as the maximum activity as a percentage of the wild-type RdpA enzyme's activity, which was set at 100%. […] The enzymatic activity with mecoprop as a substrate was reduced for each of the MON-HT1, MON-HT13, MON-HT15, and MON-HT17 variants compared to the wild-type RdpA enzyme. An unexpected result was that enzymatic activity with MCPA as a substrate was roughly 6-fold greater for MON-HT1, and approximately 10-fold greater for MON-HT13, MON-HT15, and MON-HT17 compared to the wild-type RdpA enzyme.

B1: Wild-type RdpA: wild-type RdpA enzyme from Sphingobium herbicidovorans, SEQ ID NO:60 (protein)
chain: MHAALSPLSQRFERIAVQPLTGVLGAEITGVDLREPLDDSTWNEILDAFHTYQVIYFPGQAITNEQHIAFSRRFGPVDPVPLLKSIEGYPEVQMIRREANESGRVIGDDWHTDSTFLDAPPAAVVMRAIDVPEHGGDTGFLSMYTAWETLSPTMQATIEGLNVVHSATRVFGSLYQAQNRRFSNTSVKVMDVDAGDRETVHPLVVTHPGSGRKGLYVNQVYCQRIEGMTDAESKPLLQFLYEHATRFDFTCRVRWKKDQVLVWDNLCTMHRAVPDYAGKFRYLTRTTVGGVRPAR
modifications: Sphingobium herbicidovorans
- activity of the wild-type enzyme at 46° C. and 47° C. [1]: completely inactive
- inactivation of the wild-type enzyme at 42° C. and 41° C. [1]: 90 % inactive
- Vmax Quizalofop ([2]; 23° C., purified His-tagged protein, standard error in parenthetical): 1.38 (−0.06) umol herbicide product mg enzyme-1 min-1
- Km ([2]; 23° C., purified His-tagged protein, standard error in parenthetical, read-out: Km Quizalofop): 270 µM
- Vmax 2,4-D ([2]; Table 10 series, unit as defined): 0.25 (0.01) umol herbicide product mg enzyme-1 min-1
- Km ([2]; Table 10 series, unit as defined, read-out: Km 2,4-D): 130 µM
- Vmax Quizalofop ([2]; Table 10 series, 23° C., unit as defined): 2.76 (0.11) umol herbicide product mg enzyme-1 min-1
- Km ([2]; Table 10 series, 23° C., unit as defined, read-out: Km Quizalofop): 90 µM
- Vmax 2,4-D ([2]; standard error in parenthetical, NDB = activity not robust enough for kinetic characterization): 0.10 (−0.01) umol herbicide product mg enzyme-1 min-1
- Km ([2]; standard error in parenthetical, NDB = activity not robust enough for kinetic characterization, read-out: Km 2,4-D): 30 µM
- Melting temp, Buffer ([3]; Table 11 series): 43 °C
- Melting temp, Buffer plus Fe2+ and aKG ([3]; Table 11 series): 53 °C
- T1/2, temperature where 50% of the protein was unfolded, Buffer plus Fe2+ and aKG ([3]; buffer): 50 °C
- T1/2, temperature where 50% of the protein was unfolded, Buffer ([3]; buffer, pH 7.5): 42 °C
- maximum activity as a percentage of the wild-type enzyme's activity, Haloxyfop ([4]; purified enzyme): 100%
- maximum activity as a percentage of the wild-type enzyme's activity, Dichlorprop [4]: 100%
- maximum activity as a percentage of the wild-type enzyme's activity, Fenoxaprop [4]: 100%
- maximum activity as a percentage of the wild-type enzyme's activity, Fluazifop [4]: 100%
- MCPA Km [5]: 100%
- MCPA Vmax [5]: 100%
- Mecoprop Km [5]: 100%
- Mecoprop Vmax [5]: 100%
